Measured values published in the nanobody polyreactivity screen of Harvey et al. (2022).

Assay: yeast display, Sf9 membrane polyspecificity reagent, FACS + sequencing; frameworks hold sequencing errors
Summary of the method: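 Polyreactivity labels are assigned by the sorting gate from which each nanobody was recovered. The gates were low and high (top ~1%), set on anti-HA fluorescence for expression and streptavidin fluorescence for reagent binding. Before sorting, galactose-induced (36–48 hours) yeast display cells were stained for 1 hour at 4 °C with 10% biotinylated, detergent-solubilized Sf9 membrane reagent.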

| Sequence | polyreactivity (PSR sort gate) |
| --- | --- |
| QVQIVESGGGLVQAGGSLRLSCAASGSTFLKYTMGWYRQAPGKERELVAAISKSGGSTYYADSVKGRFTISRDNAKNTVYLQMNSLKPEDTAVYYCAIGRSWVSSYGYGYWGQGTQVTVSS | high polyreactivity |
| QVQIVESGGGLVQAGGSLRLSCAASGSTFNRNAMGWNRQATGKERELVAAITRSASSTYYADSVKGRFTISRDNAKNTVYLQMNSLKPEDTAVYYCAVEYVAYLYRMDYWGQGTQVTVSS | high polyreactivity |
| QVQIVESGGGLVQAGGSLRLSCAASGSTFPSYAMGWYRQATGKEREWVAAITRSCGRTYYADSVKGRFTISRDNSKHTVYLQMNSLKPEDTAVYYCAADLGSNYDYWGQGTQVTVLS | low polyreactivity |
| QVQIVESGGGLVQAGGSLRLSCAASGSTFYEYAMGWYRQAPGKERELVATITSGGRTYYADSVKGRFTISRDNAKNTVYLQMNSLKPEDTAVYYCAAAGKGRFHFRSTMDYWGQGSQVTVSS | high polyreactivity |
| QVQIVESGGGLVQAGGSLRLSCAASGSTLSYYGMGWYRQAPGKERELVAAISTGGRTYYADSVKGRFSISRDNATNTVFLQMTSLKPEDTAVYYCNALYVSYVSRYDYWGQGTQVTVSS | high polyreactivity |
| QVQIVESGGGLVQAGGSLRLSCAASVFTFGENAMGWYRQAPGKERELVAAITSGDGTSYADSVKGRFTISRDNAKYTVYLQMNSLKPEDTSVYYCAADVGDELYYSTYDYWGQGTQVTVSS | low polyreactivity |
| QVQIVESGGGLVQAGGSLRLSCAAYGRTFSYYTMGWYRQAPGKERELVARISNRGTNTYYADSEKGRFTISRDNAKNTVYLQMNSLKPEDPAVYYCAKYYSTSIVGYDSWGQGTQVTVSS | low polyreactivity |
| QVQIVESGGGLVQAGGSLRLSCASSGIIFWPNAMGWYRQAPGKERELVASITSGGYTYYADYVKGRFTISRDNAKNTVYLQMNSLKPEDTAVYYCAAEWYPYGPKRYYWGQGTQVTVSS | low polyreactivity |
| QVQIVESGGGLVQAGGSLRLSCASSGSTSYRNAMGWYRQAPGKEREFVASISKSTDSTYYADSVKGRFTISRDNAKNTVYLQMLSLKPEDTAVSYCADVQGYKGLQDDSWGQGTQVTVSS | high polyreactivity |
| QVQIVESGGGLVQAGGSLRLSCDASGFIFYYYAMGWYRQAPGKERELVATITSGGGSTYYADSVKGRFTISRDNAKNTVYLQMNSLKPEDTAVYYCAAKGPYYKSSRTGDYWGQGTQVTVSS | low polyreactivity |
| QVQIVESGGGLVQAGGSLRLSCDASGSIFNYNAMGWYRQAPGKEREFVAAINQGGTSTYYADSVKGRFTISRDNAKNTVYLQINSLKPEDTAVYYCAALITVYRGSYEYWGQGTQVTVSS | low polyreactivity |
| QVQIVESGGGLVQAGGSLRLSFAASGSTFVLYAMGWYRPAPGKERELVAAISGGATTTYADSVKGRFTISRDNAKNSVYLQMNSLKPEDTAVYYCAADFYTFVVSGAAMDYWGQGTQVTVSS | low polyreactivity |
| QVQIVESGGGLVQAGGSLRLTCAASGFTFTDYAMGWYRQAPGIERELVAVITYDSTYYADSVKGRFTISRDNAKNTVSLHMNSLKPEDTAVYYCAADSYDWGEFDYWGQGTQVTVSS | low polyreactivity |
| QVQIVESGGGLVQAGGSLRLTCAASGSILWYNTMGWYRQAPGKERELVAAIRTSGSRTYYADSVKGRFTISRDNAKNTVYVQMNSLKPEDTAVYYCAAERGSQRVRSGYWGQGTQVTVSS | high polyreactivity |
| QVQIVESGGGLVQAGGSLRVSCAASGRTFRLYAMGWYRQAPGKERELVAAITRGGRTNYADSVKGRFTISRDNAKYTVYLHMNSLKPEDTAVYYCAARYVERHTDYYYWGQGSQVTVSS | low polyreactivity |
| QVQIVESGGGLVQAGGSLRVSCAPSGRTFLPYGMGWYRQAPGKEWELVASITSGGSTNYADSVKGRFTISRDNAQNTVYLQMNSLKPEDTAVYYCNKQTIPEWPWVKYSNGYDHWGHGTQVTVSS | low polyreactivity |
| QVQIVESGGGLVQAGGSLSLSCAASGFTLVGYAMGWYRQAPGKERELVAAISSGGRTKYADSVKGRFTISRDNAKNTVYLQMNSLKPEVTAVFYCAAPYNVRWRYGYWGQGTQVTVSS | high polyreactivity |
| QVQIVESGGGLVQAGGSLSLSCAASGRTFQRNAMGWYRQAPGKERELVAAITTGSRTYYADSVKGRFTISRDNAKNTVYLQMNSLKPEDTAVYYCAAVATRRDYGYWGQGTQVTVLS | high polyreactivity |
| QVQIVESGGGLVQAGRSLRLSCAASGIIFDHYAMGWYRQAPGKERELVAAITTGGGNTYYADSVKGRFTISRDNAKNTVYLQMNCLKPEDTAVYYCNDDGLWGRRWGDYYGYDYWGQGTQVTVSS | low polyreactivity |
| QVQIVESGGGLVQAGVSLRLSCAPSGFIFSVYAMGWYRQAPGKEMELVAGITRNGGITYYADSVKWRFTISRDNAKNTVYLQMNSLKPEDSAVYYCAAQAPKRRPFYGYYWGQGTQVTVSS | high polyreactivity |
| QVQIVESGGGLVQEGGSLRISCAASGFTFTANAMGWYRQAPGKERELVAAITRNGGRTYYADSVKGRFTISRDNAKNTVYFQMNSLKPEDTAVYYCAKPTSQRIHDDYDYWGQGTQVTVSS | high polyreactivity |
| QVQIVESGGGLVQEGGSLRLSFAASGSTFYYYPMGWYRQAPGKERELVAAITSGDTTNYADSVKGRFTISRDNAKNTVYLQMNSLKPEDTAVYYCAVDLNTTAFYPVAATYLDDYWGQGTQVTVSS | low polyreactivity |

| Sequence | polyreactivity (PSR sort gate) |
| --- | --- |
| QVQIVESGGRLDQAGGILRLSCAASGRTFTVNAMGWNRQAPGKERELVATIRSGGTTNYAASVKGRFTISRDNAKNTVYLTMNRLKPEDTAVYYCNARVLTRTSVVRYYYWGQGTQVTVSS | high polyreactivity |
| QVQIVESGGRLVQAAGRLSLTCAASGSIFVWNAMGWYRQEPGKEREVVAAITNIGGRTYYADSVKGRFTISRDNAKYTVYLQMNSQKPEATAGYYCNSDLVSRLGWSTTSDSWGQGTQVTVSS | high polyreactivity |
| QVQIVESGGVLDHAGGSLRLSCAATVGTSIPNAMGWYRQAPGKERELVAAITRSGGRTYYADSVKGRFTISRDNATNTVYLQMNSLKREDTAVYYCAARVRTTSVRGRYDYWGQGTQVTVSS | high polyreactivity |
| QVQIVESGGVLVQAGGSLRLSCAASGSITYFNAMGWYRQAPGKERELVAAISYSGGSTYYADSVKGRFTISRDNAKNTVYLQMNSLKPEDTAVYYCAADRLIGWRKTYYYWGQGTQVTVSS | high polyreactivity |
| QVQIVESGRGLVQAGGSLRLSCAASGSTFKYYAMGWYIQAPGKERELVAAISWTGGSTYYADSVKGRFTISRDNAKNTVYLQMNSLKPEDTAVYYCNALGHVQGYDYWGQGTQVTVSS | high polyreactivity |
| QVQIVESGRGLVQAGGSLRLSCASSGFTFVSYAMGWYRQAPGKERELDASISKRGGTTYYADSVKGRFTISRDNAKNTVYLQMNSLKPEDTAVYYCYARDTRRYVTYDSGYDYWGQGTQVTVSS | high polyreactivity |
| QVQIVESRGCLVQAGGSLRLICAASGSIFLANAMGWYRQAPRKEREFVPAITSSGGSTYYADSVKGRFTISRDNAKNSVYLQMNSLKPEDTAVYYCNVRPRYRWRSTPYGYWGQGTQVTVSS | high polyreactivity |
| QVQIVESRGGIVQAGGSLRLRCAASGSTFAGNAMGWYRQPPGKERELVAAITSSGGTTYYADSVKGRFTISRDNEKNTVYLQMNSLKPEDSAVYYCAAKSRRTRRSYYWGQGTQVNVSS | high polyreactivity |
| QVQIVESRVGLVQAGGSLRLSCAAYGSIFYYNAMGWYRQAPGKERELVAAITSSGGSTYADSVKGRFTISRDNAKNTVYLQMNSLKQEDTAVYYCATVAHGLWSGSGYIYAYDYWGQGTQVSVSS | low polyreactivity |
| QVQLAESGGGLVQAGGSLRLSCAASGSTFPRNPMGWYRQAPGKERELVATITSSGGGTYYADSVKGRFTISRDNAKITVYLQMNSLKPEDTAVYYCNADGPAGDAFDYWGQGTQVTVSS | low polyreactivity |
| QVQLAESGGRLVQAGGRLRLSCAASGRTSTCYAMGWYRQPPGKERELVAAISYRGGSTYYADSVKGRFTISRDNAKNSVYLHLNSLKPEDTAVYYCAAKWYWRGDYWGQGTQVTVSS | high polyreactivity |
| QVQLDESGGGLVQAGGSLRLSCAASGRTFGVYAMGWYRQAPGKERELVAAIRWSGGGTYYADSVKVRFTISRDNAKNTVYLQMNSLKPEDTAVYYCAATLENSPYTRYTDMYYWGQGTQVTVSS | low polyreactivity |
| QVQLEDSGGCLVQAGGRLRLSCAASGITYGRNTMGRYRQAPGKERELVAAIDSGGNTYADSVKGRFTISRDNAKITVYLQMNSLKPEDTAVYYCAVYGGEFSSYGYWGQGTQVTVSS | low polyreactivity |
| QVQLEDSGGGLVQAGGSLGLSCAASGITFSVYDMGWYRQAPGKERQLVAAISWSGGSTYYADSVKGRFTISRDNAKNTVFLQMNSLKPDDTAVYYCAAEVDYWYELYDYWGLGTQVTVSS | high polyreactivity |
| QVQLEDSGGGLVQAGGSLRLSCAASGGTFRYNSMGWYRPAPGKERELVAGITWGGGSTYYADSVKGRFTISRDYAKNSVYLQMNSLKPEDTAVYYCNAVRPRQWWTHYGYWGQGTQVTVSS | high polyreactivity |
| QVQLEDSGGGLVQAGGSLRLSCAASGRIFGYNAMGWYRQAPGKERELVAAITTSGGSTYYADSVKGRFTISRDNAKNTVYLQMNSLKPEDTAVYYCARDSLQVFYPYASDDYWGQGTQVTVSS | low polyreactivity |
| QVQLEDSGGGLVQAGGSLRLSCAASGRIFYAYAMGWYRPAPGKEREFVASISGSGGSTYYADSVKGRFTISRDNAKNTVYLQMNSLKPEDTAVYYCAKRYPFFSSGLSPYNYWGQGTQVTVSS | high polyreactivity |
| QVQLEDSGGGLVQAGGSLRLSCAASGSIFYSNSMGWYRQAPGKERELVAAISSSGSRTYYADSVKGRFTISRDNAKNTVYLQMNSLKPEYTAVYYCSAVIRYTRSYDYWGQGTQLTVSS | high polyreactivity |
| QVQLEDSGGGLVQAGGSLRLSSAASGSTFAVYAMGWYRQAPGKERELVAAISFSGSTYADSVKGRFTISRDNAKNTVYLQMNSLKPEDTAVYYCAKEYRVFGWWYTKGDYWGQGTQVTVSS | low polyreactivity |
| QVQLEDSGGGLVQAGRSLLLSFAASGNTFWLNAKGRYRQAPGKERELVAAITYTDGSTYADSVKGRFTISRDNAKITVYLQMNSLKPEDSAVYYCAARYQWDWRDYYYWGQGTQVTVSS | low polyreactivity |
| QVQLEEAGGGLVQAGGSLRLSCAASARIIARYAMGWYRQAPGKERELVAAITGSGGSTYYADSVKGLFTISRDHANNTVYLQMNCLKPEDTAVYYCAARSVYTYYRLDYWGQGTQVTVSS | high polyreactivity |
